Numbering of substitutions follows the chain as printed. In names and notes the source's numbering stands.
How the values were obtained:
Fao cells = assay: Effect of inducers of insulin resistance on insulin-stimulated Tyr phosphorylation of IRS-1 in Fao cells; assay type: cell-based, rat
Method: FIGS. 5a-c show the effects of TPA and anisomycin on insulin-induced Tyr phosphorylation of IRS-1^7A in Fao cells. Fao cells were infected with Ad-Myc-IRS-1^WT or Ad-Myc-IRS-1^7A at 7×10^7 PFU/ml. Following 48 hours the cells were deprived of serum for 16 h, and were then treated for 60 min with 200 nM TPA (FIG. 5a); 50 ng/ml of anisomycin (FIG. 5b) or 1 μg/ml of anisomycin (FIG. 5c). This was followed by treatment with 100 nM insulin for 2 min (FIG. 5a) or for the indicated times (FIGS. 5b-c). Cell extracts were prepared, and samples (1 mg) were subjected to immunoprecipitation (IP) with anti-Myc antibodies (FIG. 5a). Immunocomplexes were resolved on 7.5 SDS-PAGE and were immunoblotted with the indicated antibodies. Alternatively, total cell extracts (FIGS. 5b-c) were resolved on 7.5% SDS-PAGE and immunoblotted with the indicated antibodies. Results of a representative of four experiments are presented. The results of two independent experiments done in duplicates were quantified (FIG. 5a, right panel).
FIGS. 6a-b show the dose dependent effect of Palmitic acid on Insulin-induced Tyr phosphorylation of IRS-1 mutants in Fao cells. Fao cells were infected with Ad-Myc-IRS-1^WT or Ad-Myc-IRS-1^7A at 7×10^7 PFU/ml. Following 24 hours the cells were deprived of serum for 12 h, and were then further incubated for 12 h with or without the indicated concentrations of palmitic acid in serum free medium prior to being stimulated with 100 nM insulin for the indicated times. Cell extracts (100 μg) were resolved on 7.5% SDS-PAGE and immunoblotted with anti-PY and anti-Myc antibodies. The results of two independent experiments done in duplicates were quantified.
FIGS. 11a-c show the effects of TPA and anisomycin on insulin-stimulated Tyr phosphorylation of IRS-1^WT, IRS-1^7A and IRS-1^408A. Fao cells were infected with Adeno-myc-IRS-1 wild type (WT); the 7A mutant; or the S408A mutant at a titer of 4-6×10^7 PFU/ml. Following 48 hours the cells were deprived of serum for 16 h, and were then treated for 60 min with 200 nM TPA (FIG. 11a), or 50 ng/ml anisomycin (FIG. 11b), followed by treatment with 100 nM insulin for the indicated times. Cell extracts were prepared, samples (1 mg) were subjected to immunoprecipitation (IP) with anti-Myc antibodies. Immunocomplexes were resolved on 7.5% SDS-PAGE and immunoblotted with anti-PY or anti IRS-1 antibodies.
Infection of Fao cells with adenovirus—Fao cells were grown in RPMI medium containing 10% FCS. At 70% confluence cells were infected with adenoviruses harboring the gene of interest at a titer of 7 10^7 PFU/ml. After incubation for 2 h hours at 37° C., the virus-containing medium was diluted 1:5 in fresh RPMI medium. After 24 h the medium was replaced with a fresh RPMI medium containing 10% FCS. […]

CHO-T cells = assay: Phosphorylation (mobility shift) of truncated IRS-1 PH/PTB constructs in CHO-T cells; assay type: cell-based, Chinese Hamster; conditions: for effect of inhibitor pretreatment on the mobility shift of PH/PTB-L induced by chronic insulin: 30 min inhibitor, then 100 nM insulin 30 min
Method: FIGS. 7a-c show In vivo phosphorylation of PH/PTB-L in response to insulin. CHO-T cells were transiently transfected with pcDNA3-Myc-PH/PTB (1-1290 nt) or with an insert-free plasmid (control). Twenty-four hours post-transfection, the cells were deprived of serum for 16 h and were then treated with insulin for the indicated time periods. Cell extracts (100 μg) were resolved on 10% SDS-PAGE and immunoblotted with anti-pY or anti-Myc antibodies (FIG. 7a). In parallel, samples (100 μg, 40 μl) were incubated with 3 units (U) of calf intestine phosphatase (CIP) at 37° C. for 1 h. The samples were resolved on 10% SDS-PAGE and immunoblotted with anti-Myc antibodies (FIG. 7b). The results are of a representative of two experiments. FIG. 7c—CHO^PH/PTB-L cells were starved in serum-free F12 medium for 16 h. The cells were treated for 30 min with the indicated inhibitors prior to being treated with 100 nM insulin for 30 min. Cell extracts were prepared, samples were resolved on 10% SDS-PAGE and were immunoblotted with anti-Myc antibodies. Results are of a representative of three experiments.
FIGS. 8a-b show the effects of insulin on Serine phosphorylation of Myc-PH/PTB-L^7A CHO-T cells were transiently transfected with constructs encoding Myc-PH/PTB-L (1-1290 nt), either wild type (WT) or the 7A mutant (FIG. 8a). Alternatively, the cells were transfected or with the constructs encoding Myc-PH/PTB-L (1-1290 nt; 1-430 aa) or Myc-PH/PTB-S (1-1095 nt; 1-365 aa, FIG. 8b). Following 24 hours in culture, the cells were incubated in serum-free F12 medium for 16 ch prior to being treated with insulin for the indicated times. Cell extracts were resolved on 10% SDS-PAGE and immunoblotted with anti-Myc antibodies. Results are of a representative of three experiments.
FIGS. 9a-b show the effects of insulin and calyculin A on Ser phosphorylation of PH/PTB-L mutants. FIG. 9a—CHO-T cells were transiently transfected with constructs expressing either Myc-PH/PTB^WT or the following PH/PTB mutants: S336A, S407A, S408A, S407/8A and S3A (S336/407/408A). Following 24 hours the cells were deprived of serum for 16 h, and were treated with insulin for the indicated times. Cell extracts were resolved on 10% SDS-PAGE and immunoblotted with anti-Myc antibodies. The results are of a representative of two-three experiments. FIG. 9b—CHO-T cells were transiently transfected with pcDNA3-myc-PH/PTB^WT or pcDNA3-myc-PH/PTB^S408A. Following 24 hours the cells were starved for 16 h and were then treated either with 100 nM insulin for 30 min or with 25 nM calyculin A for 60 min. Cell extracts were resolved on 10% SDS-PAGE and were immunoblotted with anti-Myc antibodies. Results are of a representative of two experiments.
Plasmids construction—i. Myc-tagged-IRS-1 The cDNA, encoding for the mouse IRS-1 in the pCNA-3 expression plasmid (35) was digested with Hind III and BspE-1. This deleted a 9 by fragment from the 5′-IRS-1 cDNA that was replaced by a double stranded synthetic oligonucleotide encoding the Myc tag and the missing amino-acids of IRS-1 (bold) […] (SEQ ID NO. 9). ii. Myc-tagged truncated IRS-1 (aa 1-430, PH/PTB-L) Myc-tagged mouse IRS-1 cDNA (N-terminus, 1-1290 nt), encoding for the first 430 aa of IRS-1, was PCR-amplified with the following primers. 5′-CAGGATCCGCATATGGAACAAAAGCTC-3′ (sense) (SEQ ID NO. 10); 5′-GAGAATTCATCAGGGACTAGAACCATA-3′ (anti-sense) (SEQ ID NO. 11), using as a template the pcDNA3-Myc-IRS-1 plasmid. The PCR product was ligated into a pGEM-T. The insert was excised from pGEM-T with BamH I and EcoR I (italic), and then was ligated into pcDNA3 at the same restriction sites to generate pcDNA3-Myc-IRS-1^PH/PTB-L. iii. Myc-tagged truncated IRS-1 (aa 1-365, PH/PTB-S) Myc-tagged mouse IRS-1 cDNA (N-terminus, 1-1095 nt), encoding for the first 365 aa of IRS-1, was PCR-amplified with the following primers: 5′ […]-3′ (sense) (SEQ ID NO. 12); 5′ […] 3′ (anti sense) (SEQ ID NO. 13) using as a template the pcDNA3-Myc-IRS-1. […]

CCCCCCCCCCCCCCCC(=O)O [FFA, Palmitic acid]
reduction in insulin-stimulated Tyr phosphorylation of IRS-1^WT by FFA pre-treatment (Fao cells; FFA 0.5-0.75 mM): ~35%

COc1cccc(-c2cc(=O)c3ccccc3o2)c1N [PD98059]
effect of inhibitor pretreatment on the mobility shift of PH/PTB-L induced by chronic insulin (CHO-T cells): ineffective

C[S+]([O-])c1ccc(-c2nc(-c3ccncc3)c(-c3ccc(F)cc3)[nH]2)cc1 (stereo not drawn) [SB203580]
effect of inhibitor pretreatment on the mobility shift of PH/PTB-L induced by chronic insulin (CHO-T cells): ineffective

CCCCCCCCCCCCCC(=O)O[C@@H]1[C@@H](C)[C@@]2(O)[C@@H](C=C(CO)C[C@]3(O)C(=O)C(C)=C[C@@H]23)[C@@H]2C(C)(C)[C@]12OC(C)=O [TPA, phorbol 12-myristate 13-acetate]
inhibition of insulin-stimulated Tyr phosphorylation of Myc-IRS-1^WT by TPA pretreatment (Fao cells; 200 nM TPA 60 min, then 100 nM insulin 2 min): ~40%

B1: PH/PTB-S: Myc-tagged truncated mouse IRS-1 (aa 1-365), lacks S407 and S408 (protein, UniProt P35569 1-365, looked up, fragment)
chain: MASPPDTDGFSDVRKVGYLRKPKSMHKRFFVLRAASEAGGPARLEYYENEKKWRHKSSAPKRSIPLESCFNINKRADSKNKHLVALYTRDEHFAIAADSEAEQDSWYQALLQLHNRAKAHHDGAGGGCGGSCSGSSGVGEAGEDLSYDTGPGPAFKEVWQVILKPKGLGQTKNLIGIYRLCLTSKTISFVKLNSEAAAVVLQLMNIRRCGHSENFFFIEVGRSAVTGPGEFWMQVDDSVVAQNMHETILEAMRAMSDEFRPRSKSQSSSSCSNPISVPLRRHHLNNPPPSQVGLTRRSRTESITATSPASMVGGKPGSFRVRASSDGEGTMSRPASVDGSPVSPSTNRTHAHRHRGSSRLHPPLN
modifications: Myc tag
notes: Myc-tagged truncated mouse IRS-1 (aa 1-365), lacks S407 and S408
mobility shift (Ser phosphorylation) following prolonged insulin treatment (CHO-T cells; CHO-T cells, prolonged insulin): no decrease in its mobility

B2: PH/PTB-L^S336A: PH/PTB-L with Ser336 mutated to Ala (protein, UniProt P35569 1-430, looked up, variant S336A)
chain: MASPPDTDGFSDVRKVGYLRKPKSMHKRFFVLRAASEAGGPARLEYYENEKKWRHKSSAPKRSIPLESCFNINKRADSKNKHLVALYTRDEHFAIAADSEAEQDSWYQALLQLHNRAKAHHDGAGGGCGGSCSGSSGVGEAGEDLSYDTGPGPAFKEVWQVILKPKGLGQTKNLIGIYRLCLTSKTISFVKLNSEAAAVVLQLMNIRRCGHSENFFFIEVGRSAVTGPGEFWMQVDDSVVAQNMHETILEAMRAMSDEFRPRSKSQSSSSCSNPISVPLRRHHLNNPPPSQVGLTRRSRTESITATSPASMVGGKPGSFRVRASSDGEGTMSRPAAVDGSPVSPSTNRTHAHRHRGSSRLHPPLNHSRSIPMPSSRCSPSATSPVSLSSSSTSGHGSTSDCLFPRRSSASVSGSPSDGGFISSDEYGSSP
modifications: Myc tag
notes: PH/PTB-L with Ser336 mutated to Ala
mobility shift following 30 min insulin treatment (CHO-T cells; CHO-T cells): identical mobility-shifts as PH/PTB-L^WT

B3: PH/PTB-L^S407A: PH/PTB-L with Ser407 mutated to Ala (protein, UniProt P35569 1-430, looked up, variant S407A)
chain: B2 chain with A336S, S407A
modifications: Myc tag
notes: PH/PTB-L with Ser407 mutated to Ala
mobility shift following 30 min insulin treatment (CHO-T cells; CHO-T cells): identical mobility-shifts as PH/PTB-L^WT

B4: PH/PTB-L^407/S408A: PH/PTB-L with Ser407 and Ser408 mutated to Ala (protein, UniProt P35569 1-430, looked up, variant S407A S408A)
chain: B2 chain with A336S, S407A, S408A
modifications: Myc tag
notes: PH/PTB-L with Ser407 and Ser408 mutated to Ala
mobility shift following 30 min insulin treatment (CHO-T cells; CHO-T cells): abolished the mobility shift

B5: PH/PTB-L^S408A: PH/PTB-L with Ser408 mutated to Ala (protein, UniProt P35569 1-430, looked up, variant S408A)
chain: B2 chain with A336S, S408A
modifications: Myc tag
notes: PH/PTB-L with Ser408 mutated to Ala
mobility shift following 30 min insulin treatment (CHO-T cells; CHO-T cells): abolished the mobility shift

From US20110104167A1, “Compositions and Methods for Diagnosing and Treating Insulin Resistance” (YEDA RESEARCH AND DEVELOPMENT CO. LTD., priority 2004, published 2011)
